Test results reported in publication PMC2120550.

Molecular target: lysin from the pink abalone (H. corrugata) (Haliotis corrugata (pink abalone))
Experiment: cross-linking

Chain of lysin from the pink abalone (H. corrugata) (natural protein) (P19448 19-155 limits assumed): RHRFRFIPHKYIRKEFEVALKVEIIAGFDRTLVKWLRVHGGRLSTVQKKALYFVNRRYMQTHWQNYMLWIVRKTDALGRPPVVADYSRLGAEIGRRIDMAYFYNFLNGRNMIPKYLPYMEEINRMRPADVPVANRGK

stoichiometry N: 2
Substance: lysin from the pink abalone (H. corrugata) (natural protein)
